Drawing on the RNAGym collection of RNA variant scans (doi:10.7554/elife.80360), this text covers self-cleavage for 38 variants.

The labels stand for the following.
B1: Hairpin Ribozyme (parent)
chain: GUCCUCUUUCACGUGCGCGUGAAAGAGAGAAGUGAACCAGAGAAACACACGUUGUGGUAUAUUACCUGGUA

In this data set the parent is B1. Nature of the data set: self-cleavage, relative activity (ratio to wild type); higher = more cleavage; co-transcriptional.
With GUCCUCUUUCACGUGCGUGUGAAAGAGAGAAGUGAACCAGAGAAGCACACGUUGUGGUAUAUUACCUGGUA [C18U A45G], the self-cleavage is 0.174.
To GUCCUCUUUCACGUGCGUGUGAAAGAGAGAAGUGAACCAGAGAAUCACACGUUGUGGUAUAUUACCUGGUA [C18U A45U] belongs 0.109; to GUCCUCUUUCACGUGCGCAUGAAGGAGAGAAGUGAACCAGAGAAACACACGUUGUGGUAUAUUACCUGGUA [G19A A24G], 0.737.
Consider GUCCUCUUUCACGUGCGUGUGAAAGAGAGAAGGGAACCAGAGAAACACACGUUGUGGUAUAUUACCUGGUA [C18U U33G], for which the self-cleavage is 0.0901.
With GUCCUCUUUCACGUGCGUGUGAAAGAGAGAAGCGAACCAGAGAAACACACGUUGUGGUAUAUUACCUGGUA [C18U U33C], the self-cleavage was found to be 0.172.
The figure for GUCCUCUUUCACGUGCGUGUGAAAGAAAGAAGUGAACCAGAGAAACACACGUUGUGGUAUAUUACCUGGUA [C18U G27A] is 0.433; for GUCCUCUUUCACGUGCGUGUGAAAGAGAGAAGUGAACUAGAGAAACACACGUUGUGGUAUAUUACCUGGUA [C18U C38U] it is 0.529.
The figure for GUCCUCUUUCACGUGCGCAUGAAAGAGAGAAGUUAACCAGAGAAACACACGUUGUGGUAUAUUACCUGGUA [G19A G34U] is 1.18; for GUCCUCUUUCACGUGCGCAUGAAAGAGAGAAGUCAACCAGAGAAACACACGUUGUGGUAUAUUACCUGGUA [G19A G34C] it is 1.32; for GUCCUCUUUCACGUGCGCAUGAAAGAGAGAAGUAAACCAGAGAAACACACGUUGUGGUAUAUUACCUGGUA [G19A G34A] it is 1.02.
The figure for GUCCUCUUUCACGUGCGCAUGAAAGAGAGUAGUGAACCAGAGAAACACACGUUGUGGUAUAUUACCUGGUA [G19A A30U] is 0.14.
On to GUCCUCUUUCACGUGCGCAUGUAAGAGAGAAGUGAACCAGAGAAACACACGUUGUGGUAUAUUACCUGGUA [G19A A22U], for which the self-cleavage worked out at 0.531.
To GUCCUCUUUCACGUGCGCAUGGAAGAGAGAAGUGAACCAGAGAAACACACGUUGUGGUAUAUUACCUGGUA [G19A A22G] belongs 0.714.
To GUCCUCUUUCACGUGCGUGUGAAAGAGAGAAGUGAACCAGAGAAAAACACGUUGUGGUAUAUUACCUGGUA [C18U C46A] belongs 0.252; to GUCCUCUUUCACGUGCGCAUGAAAGAGAGAAGUGAAACAGAGAAACACACGUUGUGGUAUAUUACCUGGUA [G19A C37A], 0.264.
The figure for GUCCUCUUUCACGUGCGCAUGAAAGAAAGAAGUGAACCAGAGAAACACACGUUGUGGUAUAUUACCUGGUA [G19A G27A] is 0.243; for GUCCUCUUUCACGUGCGCAUGAAAGACAGAAGUGAACCAGAGAAACACACGUUGUGGUAUAUUACCUGGUA [G19A G27C] it is 0.321.
In the case of GUCCUCUUUCACGUGCGUGUGAAAGAGAGAAGUGAUCCAGAGAAACACACGUUGUGGUAUAUUACCUGGUA [C18U A36U], the self-cleavage came to 0.634.
To GUCCUCUUUCACGUGCGUGUGAAAGAGAGAAGUGACCCAGAGAAACACACGUUGUGGUAUAUUACCUGGUA [C18U A36C] belongs 0.65; to GUCCUCUUUCACGUGCGUGUGAAAGAGAGAAGUGAACCAGAGAAACACACGUUGUGGUAGAUUACCUGGUA [C18U U60G], 0.719; to GUCCUCUUUCACGUGCGUGUGAAAGAGAGAAGUGAACCAGAGAAACACACGUUGUGGUACAUUACCUGGUA [C18U U60C], 1.28.
As for GUCCUCUUUCACGUGCGCAUGAAAGAGAGAAGUGAACCAGAGAAACACACGUUGUGGUAUAUUGCCUGGUA [G19A A64G], the self-cleavage came out at 0.579.
To GUCCUCUUUCACGUGCGCAUGAAAGAGAGAAGUGAACCAGAGAAACCCACGUUGUGGUAUAUUACCUGGUA [G19A A47C] belongs 0.308; to GUCCUCUUUCACGUGCGCAUGACAGAGAGAAGUGAACCAGAGAAACACACGUUGUGGUAUAUUACCUGGUA [G19A A23C], 0.763.
To GUCCUCUUUCACGUGCGCAUGAUAGAGAGAAGUGAACCAGAGAAACACACGUUGUGGUAUAUUACCUGGUA [G19A A23U] belongs 0.711; to GUCCUCUUUCACGUGCGUGUGAAAGAGAGAAGUGAACCAGAGAAACGCACGUUGUGGUAUAUUACCUGGUA [C18U A47G], 0.15; to GUCCUCUUUCACGUGCGUGUGAAAGAGAGAAGUGAAACAGAGAAACACACGUUGUGGUAUAUUACCUGGUA [C18U C37A], 0.329.
For the variant GUCCUCUUUCACGUGCGUGUGAAAGAGAGAAGUGAAGCAGAGAAACACACGUUGUGGUAUAUUACCUGGUA [C18U C37G], the self-cleavage was determined as 0.352.
With GUCCUCUUUCACGUGCGCAUGAAAGAGAGAACUGAACCAGAGAAACACACGUUGUGGUAUAUUACCUGGUA [G19A G32C], the self-cleavage was found to be 0.111.
To GUCCUCUUUCACGUGCGCAUGAAAGAGAGAAGUGAACCACAGAAACACACGUUGUGGUAUAUUACCUGGUA [G19A G40C] belongs 0.0669; to GUCCUCUUUCACGUGCGCAUGAAAGAGAGAAGUGAACAAGAGAAACACACGUUGUGGUAUAUUACCUGGUA [G19A C38A], 0.153; to GUCCUCUUUCACGUGCGUGUGAAAGAGAGAAGUGAACCAGAGAAACACACGCUGUGGUAUAUUACCUGGUA [C18U U52C], 0.928.
As for GUCCUCUUUCACGUGCGUGUGAAAGAGAGAAGUGAACCAGAGAAACACACGGUGUGGUAUAUUACCUGGUA [C18U U52G], the self-cleavage came to 0.859.
To GUCCUCUUUCACGUGCGCAUGAAAGAGAGAAGUGAACCAGAGAAACACACGUUGUGGUAUAUUACUUGGUA [G19A C66U] belongs 0.344; to GUCCUCUUUCACGUGCGCAUGAAAGAGAGAAGUGAACCAGAGAAACACACGUUGUGGUAUAUUACAUGGUA [G19A C66A], 0.314; to GUCCUCUUUCACGUGCGCAUGAAAGAGAGAAGUGAACCAGAGAAACACACGUUGUGGUAUAUUACGUGGUA [G19A C66G], 0.168.
To GUCCUCUUUCACGUGCGCAUGAAAGAGAGAAGUGAACCAGGGAAACACACGUUGUGGUAUAUUACCUGGUA [G19A A41G] belongs 0.754; to GUCCUCUUUCACGUGCGUGUGAAAGAGAGAAGUGAACCAGUGAAACACACGUUGUGGUAUAUUACCUGGUA [C18U A41U], 1.21.
